Measured values reported in patent US20240076375A1 (BEIGENE, published 2024).
Positions count from the first letter of the chain named. In names and notes the source's numbering stands. One block for each binder: values may come before it.

Key:
[1] = target: T1, Human Fc-tagged Tim-3 IgV domain (human, UniProt Q8TDQ0 22-130, limits assumed); assay: SPR (BIAcore T-200), Fc-tagged Tim-3 IgV domain captured by anti-human IgG, antibody flowed
T1 construct: not shown: human Fc tag
T1 sequence: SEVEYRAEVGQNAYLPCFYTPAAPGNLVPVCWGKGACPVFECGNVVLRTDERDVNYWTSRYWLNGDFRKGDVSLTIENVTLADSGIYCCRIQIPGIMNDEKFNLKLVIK

[2] = target: T2, Tim-3 (form used in the assay not stated) (human, UniProt Q8TDQ0 22-202, limits assumed); assay: SPR, Fab, Test 1
Tim-3-his [3] = target: T3, Tim-3-his (human, UniProt Q8TDQ0 22-202, limits assumed); assay: SPR (BIAcore T-200), antibody captured by anti-human Fab, Tim-3-his flowed
T3 construct: not shown: his tag

[4] = target: T2, Tim-3 (form used in the assay not …); assay: SPR, Fab, Test 2
[5] = target: T2, Tim-3 (form used in the assay not …); assay: SPR, Fab, mean of Test 1 and Test 2
Tim-3-his [6] = target: T3, Tim-3-his; assay: BLI (ForteBio Octet), antibody captured on protein A tips, dipped in Tim-3-his solution
Tim-3-mIgG2a = Tim-3-mIgG2a (human; mouse, UniProt Q8TDQ0 22-202); assay: ELISA on Tim-3-mIg, absorbance at OD450nm against antibody concentration
[7] = target: T2, Tim-3 (form used in the assay not …); assay: ELISA on Tim-3, absorbance at OD450nm against antibody concentration

B1: mu425 (antibody, V domains shown)
VH: EVKLVESGGGLVKPGGSLKLSCAASGFTFSRYAMSWVRQIPEKRLEWVAAISSGGSLYFPDSVKGRFTISRDNARNICYLQMNSLRSDDTAMYYCARGREADGGYFDYWGQGTTLTVSS
VL: DIVLTQSPASLAVSLGQRATISCRASESVEYYGTSLMQWYQQKPGQPPKLLIYAASNVESGVPARFSGSGSGTDFSLNIHPVEEDDIAMYFCQQSMKVPLTFGAGTKLELK
notes: Murine hybridoma mAb, purified
- Kd [1]: 58 pM
- koff [1]: 9.33e-05 s⁻¹
- kon [1]: 1.59e+06 M⁻¹ s⁻¹

B4: Ab2 in human IgG4 format with S228P mutation (antibody, V domains shown)
VH: EVQLLESGGGLVQPGGSLRLSCAAASGFTFSSYDMSWVRQAPGKGLDWVSTISGGGTYTYYQDSVKGRFTISRDNSKNTLYLQMNSLRAEDTAVYYCASMDYWGQGTTVTVSS
VL: DIQMTQSPSSLSASVGDRVTITCRASQSIRRYLNWYHQKPGKAPKLLIYGASTLQSGVPSRFSGSGSGTDFTLTISSLQPEDFAVYYCQQSHSAPLTFGGGTKVEIKR
notes: Known Tim-3 antibody, generated in human IgG4 format with S228P mutation
- Kd (Tim-3-his [3]): 19400 pM
- koff (Tim-3-his [3]): 0.0122 s⁻¹
- kon (Tim-3-his [3]): 627000 M⁻¹ s⁻¹

B5: hu425-2-2 Fab (Fab, V domains shown)
VH: EVQLVESGGGLVQPGGSLRLSCAASGFTFSRYAMSWVRQAPGKGLEWVAAISSGGSLYYPDSVKGRFTISRDNAKNTLYLQMNSLRAEDTAVYYCARGREADGGYFDYWGQGTLVTVSS
VL: EIVMTQSPATLSVSPGERATLSCRASESVEYYGTSLMQWYQQKPGQAPRLLIYAASNVESGIPARFSGSGSGTEFTLTISSLQSEDFAVYYCQQSLKVPLTFGGGTKVEIK
notes: Fab prepared from the mAb with the Pierce Fab Preparation Kit; Only the variable domains are tied to the name. hu425s were engineered in the human IgG1 format
- Kd [2]: 434 pM
- koff [2]: 0.00074 s⁻¹
- kon [2]: 1.71e+06 M⁻¹ s⁻¹
- Kd [4]: 404 pM
- koff [4]: 0.000795 s⁻¹
- kon [4]: 1.97e+06 M⁻¹ s⁻¹
- Kd [5]: 419 pM

B7: hu425-1-1 Fab (Fab, V domains shown)
VH: B5 VH with Y59F, T77S, L78C
VL: DIVLTQSPATLSVSPGERATLSCRASESVEYYGTSLMQWYQQKPGQAPRLLIYAASNVESGVPARFSGSGSGTDFTLTISSLQSEDFAVYYCQQSMKVPLTFGGGTKVEIKR
notes: Fab prepared from the mAb with the Pierce Fab Preparation Kit
- Kd [2]: 159 pM
- koff [2]: 0.000108 s⁻¹
- kon [2]: 679000 M⁻¹ s⁻¹
- Kd [4]: 346 pM
- koff [4]: 0.000435 s⁻¹
- kon [4]: 1.26e+06 M⁻¹ s⁻¹
- Kd [5]: 253 pM

B10: hu425-2-3b Fab (Fab, V domains shown)
VH: B5 VH
VL: B5 VL with M4L
notes: Fab prepared from the mAb with the Pierce Fab Preparation Kit; Only the variable domains are tied to the name
- Kd [2]: 356 pM
- koff [2]: 0.00057 s⁻¹
- kon [2]: 1.6e+06 M⁻¹ s⁻¹
- Kd [4]: 366 pM
- koff [4]: 0.00064 s⁻¹
- kon [4]: 1.75e+06 M⁻¹ s⁻¹
- Kd [5]: 361 pM

Results, then the binder that gave them:

- Kd [2]: 122 pM
- koff [2]: 0.000204 s⁻¹
- kon [2]: 1.67e+06 M⁻¹ s⁻¹
B2: ch425 Fab (Fab, V domains shown)
VH: B1 VH
VL: DIVLTQSPASLAVSLGQRATISCRASESVEYYGTSLMQWYQQKPGQPPKLLIYAASNVESGVPARFSGSGSGTDFSLNIHPVEEDDIAMYFCQQSMKVPLTFGAGTKLELKR
notes: as for B7

- Kd (Tim-3-his [3]): 271 pM
- koff (Tim-3-his [3]): 0.00012 s⁻¹
- kon (Tim-3-his [3]): 444000 M⁻¹ s⁻¹
B3: Ab1 in human IgG4 format with S228P mutation (antibody, V domains shown)
VH: QVQLVQSGAEVKKPGSSVKVSCKASGYTFTSYNMHWVRQAPGQGLEWMGDIYPGNGDTSYNQKFKGRVTITADKSTSTVYMELSSLRSEDTAVYYCARVGGAFPMDYWGQGTTVTVSS
VL: AIQLTQSPSSLSASVGDRVTITCRASESVEYYGTSLMQWYQQKPGKAPKLLIYAASNVESGVPSRFSGSGSGTDFTLTISSLQPEDFATYFCQQSRKDPSTFGGGTKVEIK
notes: as for B4

- binding result (Tim-3-his [6]): no binding
B6: hybrid antibody 425 HC/Ab1 LC (antibody, V domains shown)
VH: B5 VH
VL: B3 VL

- Kd (Tim-3-his [3]): 1470 pM
- koff (Tim-3-his [3]): 0.000778 s⁻¹
- kon (Tim-3-his [3]): 528000 M⁻¹ s⁻¹
B8: Hu425-2-3b in human IgG4 format with S228P mutation (antibody, V domains shown)
VH: B5 VH
VL: B5 VL with M4L

- EC50 (read off the curve) (Tim-3-mIgG2a): ~0.01 µg/mL
B9: hu425-2-3b (antibody, V domains shown)
VH: B5 VH
VL: B5 VL with M4L
notes: Full chains are not tied to the name

- binding result [7]: no binding
B11: hu425-2F-1 (antibody, human IgG1, kappa, V domains shown)
VH: B5 VH with Y59F, T77S, L78C, G103A
VL: B7 VL
notes: Single amino acid mutation from hu425-1-1; also called G103A
